Measured values as given in article PMC9440762.

Biological target: P72509
Experiment: SEC; C-PC dialysed overnight against 8 M urea and 30 mM β-mercaptoethanol, then loaded on Superdex 200 Increase 5/150 in urea-free 75 mM phosphate buffer pH 7.9; partial reassociation during the run

B1: C-phycocyanin αβ monomer (heterodimer of the α and β subunits) from Arthrospira platensis (protein)
chain 1: not shown
chain 2: MFDAFTKVVSQADTRGEMLSTAQIDALSQMVAESNKRLDAVNRITSNASTIVSNAARSLFAEQPQLIAPGGNAYTSRRMAACLRDMEIILRYVTYAVFAGDASVLEDRCLNGLRETYLALGTPGSSVAVGVGKMKEAALAIVNDPAGITPGDCSALASEIASYFDRACAAVS
- yield of the state with the initial hydrodynamic characteristics after renaturation from 8 M urea: 9.6%
